This is an account of results in the DeepSol protein solubility set.

The data set is described as follows: soluble on expression in E. coli; label from the status in PepcDB or PDB records.
Regarding “MKLTDSVLRSFRVAKVFRENSDKINCFDFSSNGETVISSSDDDSIVLYDCQEGKPKRTLYSKKYGVDLIRYTHAANTVVYSSNKIDDTIRYLSLHDNKYIRYFPGHNKRVVALSMSPVDDTFISGSLDKTIRLWDLRSPNCQGLMHLQGKPVCSFDPEGLIFAAGVNSEMVKLYDLRSFDKGPFATFKLQYERTCEWTGLKFSNDGKLILVSTNGGTLRVLDAFKGAVLHSFGGYNNSKGVILEAPFTPDSQFIMIGSEDGKIHVWNAESGMKVALLDGKHTGPVTCLQFNPKFMTFASACSNMAFWLPTIDD”, the “soluble on expression in E. coli” value is on record as “not soluble”. Consider “MAEAGDENLYAAARDIARALGKDPSAAGDILQILSGYGASGNRGGDPRPTPSRGGSNVNFDRALTSLERQISSYIVEDRPIWSDPVDSRTFLDSVDELLAIAGDLRSMAGDKSVAVCQSRADELIQQVMFRLQEEFGFVMDRAPDSFDSDDEFPGEEDNDTSDGVIVARPITDYKIVIEALQSSVIGDLNAIAVRMVAGGFAKECSRVYSSRRREFLEESLSRLHLRGLSMEEVQESPWQDLEDEIDRWIKAVTLIFHVFFPSERLLCDRVFSDLPVSSVTDLSFMEVCRGTTTQLLNFADAIALGSRLPERLFKVVDLYEAMQDLIPKMETLFSDRYCSPLRHEALAIHKRLGEAIRGIFMELENLIRRDPPKTAFPGGGIHPITRYVMNYLRAACKSRQSLEQILDQTGNETGSDTRPLSVQIIWVLELLESNLEGKKRTYRDPSLCFLFMMNNDKYILDKAKDNELGLVLGEDWIVKHAAKLRQYHSNYRRSSWNQVVGLLRTDGPYPKLVENLRLFKSQFDEVCKVQSQWVVSDGQLREELRSSVAGIVSPAYSNFIRRLKESPEINGRRGEPFIPYTVEDVEFIIKRLFKESSS”, for which the “soluble on expression in E. coli” value was “soluble”. Consider “MGSDKIHHHHHHMFERSDETLIAQALKGKKSAWLTLVKRYEKNLYNYALRMVNNPADAMDLMQDIFIALFRNLSKFRGECPFKNWLFKIAHYRCLEYYRRKRPMQSLDDVPEQEDEESVCLEKNLQIQQQSSALLEAMQHLPVKQKLVVELKFFQQCTFEDISQQLGISTNTAKSQLYSALDKLKLHLVDDQIIKVGVEYV”, for which the “soluble on expression in E. coli” value is “not soluble”. In the case of “MIRFIIPLMDCARLYGRPVQFKTERTDINSLMFGLPKLPSVDYFAEEEIAHLMTQEFNPLKEKDTDDTMALTMSRFSSYLQERMTKVSKRNTELNFRTFSDVMGMYNTTRDHSKLNCMSDKDNSVKEFSLSDKSNVSSETTNMMNQLQVNAHEYKSSMCERPIVASTSPIA”, the “soluble on expression in E. coli” value is “not soluble”. For “MGSDKIHHHHHHVDWNWNGDIRFRYDSSKTELASSPDKPADDRYRLRARFGVSPTINDELSAGLRLATGDGKNPTSTNQTLGKDFADKAIWLDEAYINYHPKALEGKVNVLLGKRDIAKTFNVVKDLVWDSDVTIEGATLQYGKDVSGKQKSGPSLIAGYYTLENYATASDPCIFAVQGAYMGTVSGADFNLGASYFDYVHMKNVAWWNSPNGPANDGKDFRILEVFGTLGGKLGGSLPATLYAQYAHNTALNSDNNAVLAGLKLGSDKKPGGWTLDGGYFYIEKYAVTPLTDGDRPMSSKYSTDIKGLKIGATYQLVQNMTLGATYFHVNPVDSSLTGSTSDHKNLVQADVAVNF”, the “soluble on expression in E. coli” value was “not soluble”. For the sequence “MAVLAVVLLLACLERAVAQTFGCSNTKINDQARKMFYDAHNDARRSMAKGLEPNKCGLLSGGKNVYELNWDCEMEAKAQEWADGCPSSFQTFDPTWGQNYATYMGSIADPLPYASMAVNGWWSEIRTVGLTDPDNKYTNSAMFRFANMANGKASAFGCAYALCAGKLSINCIYNKIGYMTNAIIYEKGDACTSDAECTTYSDSQCKNGLCYKAPQAPVVETFTMCPSVTDQSDQARQNFLDTHNKLRTSLAKGLEADGIAAGAFAPMAKQMPKLKYSCTVEANARTWAKGCLYQHSTSAQRPGLGENLYMISINNMPKIQTAEDSSKAWWSELKDFGVGSDNILTQAVFDRGVGHYTQMAWEGTTEIGCFVENCPTFTYSVCQYGPAGNYMNQLIYTKGSPCTADADCPGTQTCSVAEALCVIP”, the “soluble on expression in E. coli” value is given as “not soluble”.

Consider “MNITIVLGDKIPSIKYGGTQRVMWYLGKELNKRGHKVTFIAGKGSSCPFAKVIELDPSVNLNTQIPTDADIVHFNIPVPEGITKPHLLTIHGNGIPANADRNIVFVSRNHAQRLGSESFVYNGLDWDDYGPANLTLSRKNYHFLGKAAWKVKNIKGAIAVVQSIKNAQLDVLGGYRLNLKMGFRFTWNPRIHFHGMVDDSKKKVIIEQSKGLIFPVTWHEPFGLAITESLYFGAPVFGTPYGALPELVSPEVGFLTAHGQEMAEHIQSAQYSPKVCHEYARDLFNSSVMAEAYLKKYETVLNGEPLNKEVPHIIDIARRLPWD”, for which the “soluble on expression in E. coli” value was “not soluble”.

For the sequence “MGSSHHHHHHSSGLVPRGSHMLDIMSDDGDITAVSSGNRDIAQVVTENNKNYLVLYASQTGTAEGFAKAFSKELVAKFNLNVMCADVENYDFESLNDVPVIVSIFISTYGEGDFPDGAVNFEDFICNAEAGALSNLRYNMFGLGNSTYEFFNGAAKKAEKHLSAAGAIRLGKLGEADDGAGTTDEDYMAWKDSILEVLKDELHLDEQEAKFTSQFQYTVLNEITDSMSLGEPSAHYLPSHQLNRNADGIQLGPFDLSQPYIAPIVKSRELFSSNDRNCIHSEFDLSGSNIKYSTGDHLAVWPSNPLEKVEQFLSIFNLDPETIFDLKPLDPTVKVPFPTPTTIGAAIKHYLEITGPVSRQLFSSLIQFAPNADVKEKLTLLSKDKDQFAVEITSKYFNIADALKYLSDGAKWDTVPMQFLVESVPQMTPRYYSISSSSLSEKQTVHVTSIVENFPNPELPDAPPVVGVTTNLLRNIQLAQNNVNIAETNLPVHYDLNGPRKLFANYKLPVHVRRSNFRLPSNPSTPVIMIGPGTGVAPFRGFIRERVAFLESQKKGGNNVSLGKHILFYGSRNTDDFLYQDEWPEYAKKLDGSFEMVVAHSRLPNTKKVYVQDKLKDYEDQVFEMINNGAFIYVCGDAKGMAKGVSTALVGILSRGKSITTDEATELIKMLKTSGRYQEDVW”, the “soluble on expression in E. coli” value is on record as “soluble”. For “SLKVYSKDEIVEQAKELAKMISETEEVDFFKKAEAQIHKNENVKRAIDEIKALQKQAVNLQHYGKWEALKKVEAEIDALQDKLDSIPVVQEFKSSQTYVNDLLQLVASTISNNVTDEILISTNGDVLKGETGAAVESKKGNCGC”, the “soluble on expression in E. coli” value is on record as “soluble”. Under “MSDISIEMIKRIVEEVVKKFLSKKILVVFTGGKVNFDISLDELKKIKENSMVEYTLVFSRAASQIFNKKMISDQLESVEVIEEGEAINARECVQKHNMVIFATLTRNTASKISHLILDTLPTQIAINCVLSDVPIVAVRDAADLNVETWRELGFSNFPPALKNSYDKIFKDIESYGIELCNSFELAKKVLGYLNSNSFSIAEKINKEEKSKRENSYYNGAKNIRLEKKIITREDIIGLKGKIDTIEIAKDSIITPLAMDFIRDNQLKVIKT” stands “not soluble”. Under “AQQGVFTLPARINFGVTVLVNSAATQHVEIFVDNEPRAAFSGVGTGDNNLGTKVINSGSGNVRVQITANGRQSDLVSSQLVLANKLNLAVVGSEDGTDMDYNDSIVILNWPLG” stands “soluble”; under “MTNYVKKVSIEDFGCQFLHTAHWNNRLRTTGGRFFPNDRHLDFNPKIYREFGIDIFRKIVRHELCHYHLYIQGKGYQHRDKAFKELLEKVDGLRYTPRVTAVKVNYHHYSCQSCGQVYRRRRRVNLRKFACGYCHGRLIESFLEHHHHHH”, “not soluble”; under “MRKWETFIIDYMNKSKKTFVKTIDIEHHLKTLLKQEYDDDGGYFKYSSTLKNMVEEEKIQPVKARGHNHQTPPVFNEYRLVKKERRTNPTHIKKLMTDYLLFNMTAFYDEAEFEKWKFYIDRVHAFLTQNSDTKNNILKANERSFELFRNEKFLLDKEGTKFLANLGLTLSDLNCRRTYEPFVEYQPNPSKKPKNILIIENRDTFDSIKELMIDGIDTWSRITFDMVIYGEGDKIQRSFYFLEEYELEDYEVYYFGDLDARGIHICSELIKIDNRVKPFIPFYIELLNRYGHEPSTRTIERKLKQTIIDDSLKLFSSFFEGDYIDELKRYTDIIQNVQIYIPQEGLNLVILRKLGERR”, “not soluble”. With “MVQQQQQSQQRMMELHERNDREKLARKTEKEREEERRKQEDDKILQLEKKLEEFQENARFIGDLASNFQTKYQDALNGRIYTLVRGLQDLDRMKGTFSDKKVPLDLLPYLDDGKNPCLYSKHCMEKTLEKNKAVNGKIEIYKKFRAHLMKEFSEEMPDLVMYYRSIREDLDLS”, the “soluble on expression in E. coli” value was “not soluble”. With “SNAMKFSEFRYERPDIAQLQASFQEALDSFRRAGSAALQHEAMKRINELRRRYSTMANLCHIRHTIDTNDEFYKKEQDFFDETEPVVKGLVNDYYRALVSSPFRAELEQVWGKQLFALAETQLKTYAPVIVEDLQKENKLASEYTKLIASAKIMFEGEERTLAQLQPFVESPDRAMRQRASEARFSFFKDYEKELDELYDELVHVRTAIARKLGFQNFVELGYARLGRTDYNADMVAGYRRQVKTHIVPLAAKLRERQRQRIQVEKLYYYDEPFMFPTGNPTPKGDADWIVQNGRQMYEELSPETGEFFRYMVEHELMDLVAKKGKAGGGYCTYIDDYKAPFIFSNFTGTSGDIDVLTHEAGHAFQVYESRHYDIPEYNWPTLEACEIHSMSMEFFTWPWMELFFGEDADKYRFAHLSDALLFLPYGVAVDEFQHAVYENPDMTPAERKSVWRNIEKAYLPTRDYADHDYLERGGFWQRQGHIYTDPFYYIDYTLAQVCAFQFWKRAQEDRASAWRDYVALCRLGGSRPFTELVKSANLQSPFADGAVASVVGHIERWLDSVDDKAL”, the “soluble on expression in E. coli” value was “soluble”. On to “GMQQSEHFSFGEQTEIEDIGGGLKRQMLGFNHELMAVKIWFDKGAEGYVHAHRHSQVSYVVEGEFHVNVDGVIKVLTAGDSFFVPPHVDHGAVCPTGGILIDTFSPAREDFVEGLS”, for which the “soluble on expression in E. coli” value is recorded as “soluble”. Take “MKEKTPFKNEKEFHDMVKKTKKGTFSGWYIVNPENNSVEFSGNFNRQFKLNKPVIPVNTEYVTRKEFNEYKDSNDQRLIKIETTLAAQGEQIRIQGEQIKELQIEQKAQSETLKLILQTLQKMSDRLDKMDVRLDKLESK”: the “soluble on expression in E. coli” value is recorded as “soluble”. Turning to “MGSDKIHHHHHHMIKLFIVACGYIIYKLGRYCKENEYYMASLLMLQYHKSLSAERQQILYTNFTYYKKLSEKKKLEFEKRVQHFLTNKSFIASDGFEITEQMKVMIAATAVQILFCRKAYYLSSFDFIELFEEVPVHVEVMRKKRIIQISWNEFKKGFDSLIDGYNPGLKIMAMALDLEHKFGEKSLFSQQTYKAFQKIYKQEAEKYILSGKSKYDHYNKVDRTEYFAVAVEYFFERPEHFNVNQPAMYLALSKLLRQDPLGMYTYKEKVFE”, the “soluble on expression in E. coli” value is on record as “not soluble”.

As for “MGSSHHHHHHSSGLVPRGSMEFVKDLKTPEDYINNELKYGAHNYDPIPVVLKRAKGVFVYDVNDKRYYDFLSAYSSVNQGHCHPNILNAMINQAKNLTICSRAFFSVPLGICERYLTNLLGYDKVLMMNTGAEANETAYKLCRKWGYEVKKIPENMAKIVVCKNNFSGRTLGCISASTTKKCTSNFGPFAPQFSKVPYDDLEALEEELKDPNVCAFIVEPIQGEAGVIVPSDNYLQGVYDICKKYNVLFVADEVQTGLGRTGKLLCVHHYNVKPDVILLGKALSGGHYPISAVLANDDIMLVIKPGEHGSTYGGNPLAASICVEALNVLINEKLCENAEKLGGPFLENLKRELKDSKIVRDVRGKGLLCAIEFKNELVNVLDICLKLKENGLITRDVHDKTIRLTPPLCITKEQLDECTEIIVKTVKFFDERF”, the “soluble on expression in E. coli” value is listed as “soluble”.
